As usually defined, the stoichiometry N is a count of units in the complex or per binding partner.

The source of these data is paper PMC9541495, “Understanding the interaction of 14‐3‐3 proteins with hDMX and hDM2: a structural and biophysical study” (The Febs Journal, 2022).

First the molecules themselves.
T1: FAM‐Ahx‐hDMX_(335‐373) ^pSer342/pSer367 (human, phosphoserine at 342 and at 367; N-terminal FAM-Ahx (5,6-carboxyfluorescein on an aminohexanoic acid linker); C-terminal amide)
T1 construct: hDMX (human double minute 4 protein, hDM4), human, residues 335-373; Tracer form used in the FA assays; source: synthetic peptide (Fmoc SPPS on Rink amide ProTide resin, HPLC purified)
T1 peptide: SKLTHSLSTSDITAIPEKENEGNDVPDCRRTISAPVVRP

T2: 14‐3‐3ε (human, UniProt P62258 1-255)
T2 construct: 14-3-3 epsilon, human, full-length protein from the pProEx HTb-His-14-3-3 construct; Written as the protomer; tag removal is told only for the ∆C proteins; source: E. coli BL21(DE3), purified (Ni2+-NTA, dialysis)
T2 sequence (looked up): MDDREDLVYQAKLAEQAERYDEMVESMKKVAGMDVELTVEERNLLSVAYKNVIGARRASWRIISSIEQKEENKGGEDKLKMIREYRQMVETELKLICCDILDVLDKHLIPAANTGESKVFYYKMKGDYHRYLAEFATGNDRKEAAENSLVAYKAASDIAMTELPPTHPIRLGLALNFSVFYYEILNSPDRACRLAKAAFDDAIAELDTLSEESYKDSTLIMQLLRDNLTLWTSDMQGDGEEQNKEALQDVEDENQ

T3: 14‐3‐3β (human, UniProt P31946 1-246)
T3 construct: 14-3-3 beta, human, full-length protein from the pProEx HTb-His-14-3-3 construct; Written as the protomer; tag removal is told only for the ∆C proteins; source: E. coli BL21(DE3), purified (Ni2+-NTA, dialysis)
T3 sequence (looked up): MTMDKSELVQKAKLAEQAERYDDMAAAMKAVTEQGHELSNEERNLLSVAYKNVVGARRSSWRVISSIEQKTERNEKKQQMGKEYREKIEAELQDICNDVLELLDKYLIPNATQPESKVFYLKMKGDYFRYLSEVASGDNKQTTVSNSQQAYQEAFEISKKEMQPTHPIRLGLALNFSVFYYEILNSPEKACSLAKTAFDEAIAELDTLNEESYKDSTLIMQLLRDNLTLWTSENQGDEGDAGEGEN

T4: 14‐3‐3σ (human, UniProt P31947 1-248)
T4 construct: 14-3-3 sigma, human, full-length protein from the pProEx HTb-His-14-3-3 construct (used in the FA assays); Written as the protomer; tag removal is told only for the ∆C proteins; source: E. coli BL21(DE3), purified (Ni2+-NTA, dialysis)
T4 sequence (looked up): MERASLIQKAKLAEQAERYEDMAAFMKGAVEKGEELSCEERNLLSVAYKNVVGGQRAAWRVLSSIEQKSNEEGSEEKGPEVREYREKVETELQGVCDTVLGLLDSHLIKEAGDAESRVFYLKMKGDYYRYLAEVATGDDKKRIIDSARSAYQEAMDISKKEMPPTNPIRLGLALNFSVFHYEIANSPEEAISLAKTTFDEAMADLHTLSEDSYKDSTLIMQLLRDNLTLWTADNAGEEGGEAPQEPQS

T5: 14‐3‐3τ (human, UniProt P27348 1-245)
T5 construct: 14-3-3 tau/theta, human, full-length protein from the pProEx HTb-His-14-3-3 construct; Written as the protomer; tag removal is told only for the ∆C proteins; also called τ/θ; source: E. coli BL21(DE3), purified (Ni2+-NTA, dialysis)
T5 sequence (looked up): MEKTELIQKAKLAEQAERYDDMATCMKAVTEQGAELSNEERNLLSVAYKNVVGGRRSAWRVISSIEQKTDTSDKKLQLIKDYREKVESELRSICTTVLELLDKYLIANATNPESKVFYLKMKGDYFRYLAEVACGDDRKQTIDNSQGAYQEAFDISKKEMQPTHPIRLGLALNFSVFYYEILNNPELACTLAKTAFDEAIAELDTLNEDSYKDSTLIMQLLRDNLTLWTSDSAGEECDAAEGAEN

T6: 14‐3‐3ζ (human, UniProt P63104 1-245)
T6 construct: 14-3-3 zeta, human, full-length protein from the pProEx HTb-His-14-3-3 construct; Written as the protomer; tag removal is told only for the ∆C proteins; source: E. coli BL21(DE3), purified (Ni2+-NTA, dialysis)
T6 sequence (looked up): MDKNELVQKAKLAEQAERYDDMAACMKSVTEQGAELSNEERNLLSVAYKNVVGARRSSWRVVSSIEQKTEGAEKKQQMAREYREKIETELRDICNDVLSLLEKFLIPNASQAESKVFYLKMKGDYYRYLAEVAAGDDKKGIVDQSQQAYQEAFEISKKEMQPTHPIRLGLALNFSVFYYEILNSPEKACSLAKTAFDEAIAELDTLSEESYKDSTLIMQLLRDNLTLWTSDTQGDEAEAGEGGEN

B1: 14‐3‐3γ (natural protein, human, UniProt P61981 1-247, looked up)
chain: MVDREQLVQKARLAEQAERYDDMAAAMKNVTELNEPLSNEERNLLSVAYKNVVGARRSSWRVISSIEQKTSADGNEKKIEMVRAYREKIEKELEAVCQDVLSLLDNYLIKNCSETQYESKVFYLKMKGDYYRYLAEVATGEKRATVVESSEKAYSEAHEISKEHMQPTHPIRLGLALNYSVFYYEIQNAPEQACHLAKTAFDDAIAELDTLNEDSYKDSTLIMQLLRDNLTLWTSDQQDDDGGEGNN
notes: 14-3-3 gamma, human, full-length protein from the pProEx HTb-His-14-3-3 construct; Written as the protomer; tag removal is told only for the ∆C proteins; source: E. coli BL21(DE3), purified (Ni2+-NTA, dialysis)
B2: FAM‐Ahx‐hDM2_(160‐192) ^pSer166/pSer186 (peptide)
peptide: SRRRAISETEENSDELSGERQRKRHKSDSISLS
modifications: phosphoserine at 166 and at 186; N-terminal FAM-Ahx (5,6-carboxyfluorescein on an aminohexanoic acid linker); C-terminal amide
notes: hDM2 (human double minute 2 protein), human, residues 160-192; Tracer form used in the FA assays; source: synthetic peptide (Fmoc SPPS on Rink amide ProTide resin, HPLC purified)
B3: 14‐3‐3η (natural protein, human, UniProt Q04917 1-246, looked up)
chain: MGDREQLLQRARLAEQAERYDDMASAMKAVTELNEPLSNEDRNLLSVAYKNVVGARRSSWRVISSIEQKTMADGNEKKLEKVKAYREKIEKELETVCNDVLSLLDKFLIKNCNDFQYESKVFYLKMKGDYYRYLAEVASGEKKNSVVEASEAAYKEAFEISKEQMQPTHPIRLGLALNFSVFYYEIQNAPEQACLLAKQAFDDAIAELDTLNEDSYKDSTLIMQLLRDNLTLWTSDQQDEEAGEGN
notes: 14-3-3 eta, human, full-length protein from the pProEx HTb-His-14-3-3 construct; Captured on an NTA chip in SPR; source: E. coli BL21(DE3), purified (Ni2+-NTA, dialysis)

For data set [1], the target named is B2. Briefly: fluorescence polarisation; fluorescence anisotropy, direct titration: 14-3-3 protein titrated (1/2 dilution series) against 50 nM FAM-Ahx tracer peptide; 10 mM HEPES, 150 mM NaCl, 0.1% Tween 20, 0.1% BSA, pH 7.4; 384 well plates, triplicates; protein concentration as 14-3-3 monomer; 1:1 fit, biphasic curves fitted as two separate 1:1 events (Kd1, Kd2). Particulars: both partners purified. On the technique in general: In fluorescence polarisation assays a small probe gives low polarisation when free and higher when bound to something large.

For data set [2], the target named is T1, FAM‐Ahx‐hDMX_(335‐373) ^pSer342/pSer367. The description is as above. The note with it: both partners purified.
Data set [3] deals with T2, 14‐3‐3ε. The description is as above. The note with it: both partners purified.
In data set [4] the target is T3, 14‐3‐3β. Described as above. The note with it: both partners purified.
Data set [5] concerns the target T4, 14‐3‐3σ. Described as above. The note with it: both partners purified.
In data set [6] the target is T5, 14‐3‐3τ. The data set is described as above. Particulars: both partners purified.
Data set [7] concerns the target T6, 14‐3‐3ζ. The description is as above. Particulars: both partners purified.
Data set [8] deals with the molecule itself. Briefly: AUC; sedimentation velocity; 14 μM 14-3-3η alone or with 7 μM or 14 μM hDMX pSer342/pSer367 peptide; 10 mM HEPES, 150 mM NaCl, pH 7.4; 25 °C; c(s) by SEDFIT.

With B1, the “Kd1 (first binding event)” value in data set [1] was 0.089 ± 0.01 µM; in data set [2], 0.091 ± 0.015 µM.
Regarding B2, the binding result in data set [3], in data set [4], in data set [5], in data set [6] and in data set [7] was “binds” throughout.
Turning to B3, the “stoichiometry N” value in data set [8] is 2. Further, the “Kd1 (first binding event)” value was 0.05 ± 0.012 µM in data set [1] and 0.03 ± 0.006 µM in data set [2].
